Six variants from IntAct's records for PubMed 25402481 can be followed below.

The chains are these.
B1: BBSome complex member BBS1 (Homo sapiens), Q8NFJ9 (parent)
chain: MAAASSSDSDACGAESNEANSKWLDAHYDPMANIHTFSACLALADLHGDGEYKLVVGDLGPGGQQPRLKVLKGPLVMTESPLPALPAAAATFLMEQHEPRTPALALASGPCVYVYKNLRPYFKFSLPQLPPNPLEQDLWNQAKEDRIDPLTLKEMLESIRETAEEPLSIQSLRFLQLELSEMEAFVNQHKSNSIKRQTVITTMTTLKKNLADEDAVSCLVLGTENKELLVLDPEAFTILAKMSLPSVPVFLEVSGQFDVEFRLAAACRNGNIYILRRDSKHPKYCIELSAQPVGLIRVHKVLVVGSTQDSLHGFTHKGKKLWTVQMPAAILTMNLLEQHSRGLQAVMAGLANGEVRIYRDKALLNVIHTPDAVTSLCFGRYGREDNTLIMTTRGGGLIIKILKRTAVFVEGGSEVGPPPAQAMKLNVPRKTRLYVDQTLREREAGTAMHRAFQTDLYLLRLRAARAYLQALESSLSPLSTTAREPLKLHAVVQGLGPTFKLTLHLQNTSTTRPVLGLLVCFLYNEALYSLPRAFFKVPLLVPGLNYPLETFVESLSNKGISDIIKVLVLREGQSAPLLSAHVNMPGSEGLAAA
partner: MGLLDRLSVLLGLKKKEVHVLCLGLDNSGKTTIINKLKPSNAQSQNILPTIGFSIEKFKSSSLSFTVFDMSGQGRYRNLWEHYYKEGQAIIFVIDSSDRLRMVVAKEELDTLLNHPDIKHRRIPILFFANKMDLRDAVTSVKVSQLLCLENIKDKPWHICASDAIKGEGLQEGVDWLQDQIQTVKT
B2: ADP-ribosylation factor-like protein 6 (Homo sapiens), Q9H0F7-1 (parent)
chain: B1 partner
partner: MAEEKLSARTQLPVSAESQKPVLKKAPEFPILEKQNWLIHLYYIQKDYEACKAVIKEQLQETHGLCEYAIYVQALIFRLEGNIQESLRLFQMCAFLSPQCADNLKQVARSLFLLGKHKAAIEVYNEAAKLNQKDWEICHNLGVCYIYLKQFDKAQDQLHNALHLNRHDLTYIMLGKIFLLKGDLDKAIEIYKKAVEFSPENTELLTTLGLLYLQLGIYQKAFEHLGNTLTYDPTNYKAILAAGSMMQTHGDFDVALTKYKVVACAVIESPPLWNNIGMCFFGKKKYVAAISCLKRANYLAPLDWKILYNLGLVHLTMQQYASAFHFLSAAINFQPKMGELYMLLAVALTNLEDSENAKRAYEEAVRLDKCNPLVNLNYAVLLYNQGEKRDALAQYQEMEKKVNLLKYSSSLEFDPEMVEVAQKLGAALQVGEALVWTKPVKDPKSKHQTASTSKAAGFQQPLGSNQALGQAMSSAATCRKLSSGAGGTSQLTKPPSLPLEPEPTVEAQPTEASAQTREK

Variants of B1 are the subject of the first assay. Particulars: with ARL6, Q9H0F7-1.
On to MAAASSSDSDACGAESNEANSKWLDAHYDPMANIHTFSACLALADLHGDGEYKLVVGDLGPGGQQPRLKVLKGPLVMTESPLPALPAAAATFLMEQHEPRTPALALASGPCVYVYKNLRPYFKFSLPQLPPNPLEQDLWNQAKEDRIDPLTLKEMLESIRETAEEPLSIQSLRFLQLELSEMEAFVNQHKSNSIKRQTVITTMTTLKKNLADEDAVSCLVLGTENKELLVLDPEAFTILAKMSLPSVPVFLEVSGQFDVEFRLAAACRNGNIYILRRDSKHPKYCIELSAQPVGLIRVHKVLVVGSTQDSLHGFTHKGKKLWTVQMPAAILTMNLLEQHSRGLQAVMAGLANGEVRIYRDKALLNVIHTPDAVTSLCFGRYGREDNTLIRTTRGGGLIIKILKRTAVFVEGGSEVGPPPAQAMKLNVPRKTRLYVDQTLREREAGTAMHRAFQTDLYLLRLRAARAYLQALESSLSPLSTTAREPLKLHAVVQGLGPTFKLTLHLQNTSTTRPVLGLLVCFLYNEALYSLPRAFFKVPLLVPGLNYPLETFVESLSNKGISDIIKVLVLREGQSAPLLSAHVNMPGSEGLAAA [M390R], for which the “effect of a mutation on the interaction” value is “disrupting interaction strength”.

Another assay covers variants of B1. Particulars: with ARL6, Q9H0F7-1. This is another data set of the same source.
On to MAAASSSDSDACGAESNEANSKWLDAHYDPMANIHTFSACLALADLHGDGEYKLVVGDLGPGGQQPRLKVLKGPLVMTESPLPALPAAAATFLMEQHEPRTPALALASGPCVYVYKNLRPYFKFSLPQLPPNPLEQDLWNQAKEDRIDPLTLKEMLESIRETAEEPLSIQSLRFLQLELSEMEAFVNQHKSNSIKRQTVITTMTTLKKNLADEDAVSCLVLGTENKELLVLDPEAFTILAKMSLPSVPVFLEVSGQFDVEFRLAAACRNGNIYILRRDSKHPKYCIELSAQPVGLIRVHKVLVVGSTQDSLHGFTHKGKKLWTVQMPAAILTMNLLEQHSRGLQAVMAGLANGEVRIYRDKALLNVIHTPDAVTSLCFGRYGREDNTLIMTTRGGGLIIKILKATAVFVEGGSEVGPPPAQAMKLNVPRKTRLYVDQTLREREAGTAMHRAFQTDLYLLRLRAARAYLQALESSLSPLSTTAREPLKLHAVVQGLGPTFKLTLHLQNTSTTRPVLGLLVCFLYNEALYSLPRAFFKVPLLVPGLNYPLETFVESLSNKGISDIIKVLVLREGQSAPLLSAHVNMPGSEGLAAA [R404A], for which the “effect of a mutation on the interaction” value is reported as “disrupting interaction strength”.

On to MAAASSSDSDACGAESNEANSKWLDAHYDPMANIHTFSACLALADLHGDGEYKLVVGDLGPGGQQPRLKVLKGPLVMTESPLPALPAAAATFLMEQHEPRTPALALASGPCVYVYKNLRPYFKFSLPQLPPNPLEQDLWNQAKEDRIDPLTLKEMLESIRETAEEPLSIQSLRFLQLELSEMEAFVNQHKSNSIKRQTVITTMTTLKKNLADEDAVSCLVLGTENKELLVLDPEAFTILAKMSLPSVPVFLEVSGQFDVEFRLAAACRNGNIYILRRDSKHPKYCIELSAQPVGLIRVHKVLVVGSTQDSLHGFTHKGKKLWTVQMPAAILTMNLLEQHSRGLQAVMAGLANGEVRIYRDKALLNVIHTPDAVTSLCFGRYGREDNTLIMTTRGGGLIEKILKRTAVFVEGGSEVGPPPAQAMKLNVPRKTRLYVDQTLREREAGTAMHRAFQTDLYLLRLRAARAYLQALESSLSPLSTTAREPLKLHAVVQGLGPTFKLTLHLQNTSTTRPVLGLLVCFLYNEALYSLPRAFFKVPLLVPGLNYPLETFVESLSNKGISDIIKVLVLREGQSAPLLSAHVNMPGSEGLAAA [I399E], for which the “effect of a mutation on the interaction” value is reported as “disrupting interaction strength”.

A further assay covers variants of B2. Particulars: with bbs4_bovin BBS4, Q1JQ97.
On to MGLLDRLSVLLGLKKKEVHVLCLGLDNSGKTTIINKLKPSNAQSQNILPTIGFSIEKFKSSSLSFTVFDMSGQGRYRNLWEHYYKEGQAIIFVIDSSDRLRMVVAKEALDTLLNHPDIKHRRIPILFFANKMDLRDAVTSVKVSQLLCLENIKDKPWHICASDAIKGEGLQEGVDWLQDQIQTVKT, for which the “effect of a mutation on the interaction” value was “disrupting interaction strength”.

For MGLLDRLSVLLGLKKKEVHVLCLGLDNSGKTTIINKLKPSNAQSQNILPTIGFSIEKFKSSSLSFTVFDMSGQGRYRNLWEHYYKEGQAIIFVIDSSDRERMVVAKEELDTLLNHPDIKHRRIPILFFANKMDLRDAVTSVKVSQLLCLENIKDKPWHICASDAIKGEGLQEGVDWLQDQIQTVKT, the “effect of a mutation on the interaction” value is on record as “disrupting interaction strength”.

Turning to MGLLDRLSVLLGLKKKEVHVLCLGLDNSGKTTIINKLKPSNAQSQNILPTIGFSIEKFKSSSLSFTVFDMSGQGRYANLWEHYYKEGQAIIFVIDSSDRLRMVVAKEELDTLLNHPDIKHRRIPILFFANKMDLRDAVTSVKVSQLLCLENIKDKPWHICASDAIKGEGLQEGVDWLQDQIQTVKT, the “effect of a mutation on the interaction” value was “disrupting interaction strength”.
